Substitutions are numbered along the chain they refer to. In names and notes the source's numbering stands.
B1: EP_EG (Fab, V domains shown)
VH: EVQLVQSGAEVKKPGASVKVSCKASGYTFTDSEMHWVRQAPGQGLEWIGGVDPETEGAAYNQKFKGRATITRDTSTSTAYLELSSLRSEDTAVYYCTRGYDYDYALDYWGQGTLVTVSS
VL: DIQMTQSPSSLSASVGDRVTITCRASSSVNFIHWYQQKPGKAPKPLISATSNLASGVPSRFSGSGSGTDFTLTISSLQPEDFATYYCQQWSSEPWTFGQGTKVEIK
notes: also called h15H6.v2 LC-N94E LC-P95 HC-D55E HC-G56 Fab; copies: 1 + 1
B2: QP_EG (Fab, V domains shown)
VH: B1 VH
VL: B1 VL with E93Q
notes: also called h15H6.v2 LC-N94Q LC-P95 HC-D55E HC-G56 Fab; copies: 1 + 1
B3: SP_EG (Fab, V domains shown)
VH: B1 VH
VL: B1 VL with E93S
notes: also called h15H6.v2 LC-N94S LC-P95 HC-D55E HC-G56 Fab; copies: 1 + 1
B4: combination mutant LC3.HC1 Fab (Fab, V domains shown)
VH: B1 VH with T30K, E56D
VL: B1 VL with N30E, E93N
notes: Fab
B5: h15H6.v2 variant LC3 (LC-N31E) Fab (Fab, V domains shown)
VH: B1 VH with E56D
VL: B1 VL with N30E, E93N
notes: Fab-Flag tag fusion from 293T cells
B6: h15H6.v2 variant LC7 (LC-S92Y) Fab (Fab, V domains shown)
VH: B1 VH with E56D
VL: B1 VL with S91Y, E93N
notes: as for B5
B7: m15H6 Fab (Fab, V domains shown)
VH: QVQLQQSGAELVRPGASVTLSCKASGYTFTDSEMHWVKQTPVHGLEWIGGVDPETDGAAYNQKFKGKATLTADKSSSTAYMELRSLTSEDSAVYYCTRGYDYDYALDYWGQGTSVTVSS
VL: QIVLSQSPAILSASPGEKVTMTCRASSSVNFIHWYQQKPGSSPKPWISATSNLASGVPPRFSGSGSGTSYSLTISRVEAEDAATYYCQQWSSNPWTFGGGTKLEIK
notes: Tested as Fab; also called ml5H6 Fab; m15H6 in Fab format
B8: m19B12 Fab (Fab, V domains shown)
VH: EVKLVESGGGLVEPGGSLKLACVASGFTFSSYIMSWVRQTPEKRLEWVAYISNGGGTTYYSDTIKGRFTISRDNAKNTLYLQMSTLKSEDTAIYFCARQNFRSDGSSMDYWGQGTAVTVSS
VL: NIVVTQSPASLAVSLGQRATISCRASESVDSYGKSFMHWYQQKPGQPPKLLIYLASKLESGVPARFSGSGSRTDFTLTIDPVEADDAATYYCQQNNEDPYTFGGGTKLEIK
notes: Tested in Fab format
B9: APEG.LC3.HC1 (Fab, V domains shown)
VH: B1 VH with T30K
VL: B1 VL with N30E, E93A
notes: single member of the group m82
B10: APEG.LC3.HC2 (Fab, V domains shown)
VH: B1 VH with T30R
VL: B1 VL with N30E, E93A
B11: APEG.LC7.HC1 (Fab, V domains shown)
VH: B1 VH with T30K
VL: B1 VL with S91Y, E93A
B12: APEG.LC7.HC2 (Fab, V domains shown)
VH: B1 VH with T30R
VL: B1 VL with S91Y, E93A
B13: APEG.LC7.HC3 (Fab, V domains shown)
VH: B1 VH with T28K
VL: B1 VL with S91Y, E93A
B14: APEG.LC37.HC13 (Fab, V domains shown)
VH: B1 VH with T28K, T30K
VL: B1 VL with N30E, S91Y, E93A
notes: as for B9
B15: APEG.LC37.HC23 (Fab, V domains shown)
VH: B1 VH with T28K, T30R
VL: B1 VL with N30E, S91Y, E93A
notes: as for B9
B16: APEG.LC347.HC13 (Fab, V domains shown)
VH: B1 VH with T28K, T30K
VL: B1 VL with N30E, N52H, S91Y, E93A
notes: as for B9
B17: APEG.LC347.HC23 (Fab, V domains shown)
VH: B1 VH with T28K, T30R
VL: B1 VL with N30E, N52H, S91Y, E93A
notes: as for B9
B18: AG (Fab, V domains shown)
VH: B1 VH with E56A
VL: B1 VL with E93N
notes: single member of the group m42; also called h15H6.v2 HC-D55A HC-G56 Fab
B19: DA (Fab, V domains shown)
VH: B1 VH with E56D, G57A
VL: B1 VL with E93N
notes: single member of the group m42; also called h15H6.v2 HC-D55 HC-G56A Fab
B20: SG (Fab, V domains shown)
VH: B1 VH with E56S
VL: B1 VL with E93N
notes: single member of the group m42; also called h15H6.v2 HC-D55S HC-G56 Fab
B21: h15H6.v2 HC-D55E HC-G56 Fab (Fab, V domains shown)
VH: B1 VH
VL: B1 VL with E93N
notes: Produced as Fab; also called EG
B22: h15H6.v2 LC-N94A LC-P95 Fab (Fab, V domains shown)
VH: B1 VH with E56D
VL: B1 VL with E93A
notes: Produced as Fab; also called AP
B23: h15H6.v2 LC-N94E LC-P95 Fab (Fab, V domains shown)
VH: B1 VH with E56D
VL: B1 VL
notes: Produced as Fab; also called EP

target: T1, His-tagged human HtrA1 protease domain (human, UniProt Q92743 161-367); test: BIACORE SPR, Fab analyte, Human HtrA1-PD (N=2)
T1 construct: His-tagged protease domain; also called huHtrA1-PD-His; huHtrA1-PD
T1 sequence (Q92743 other isoform, or with tags, fused parts or gaps limits assumed): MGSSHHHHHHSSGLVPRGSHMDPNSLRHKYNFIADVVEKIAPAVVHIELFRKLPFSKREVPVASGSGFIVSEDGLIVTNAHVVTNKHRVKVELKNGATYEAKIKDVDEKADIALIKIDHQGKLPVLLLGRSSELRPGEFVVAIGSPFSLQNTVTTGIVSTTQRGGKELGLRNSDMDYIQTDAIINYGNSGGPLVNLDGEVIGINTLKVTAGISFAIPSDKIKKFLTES

Binder	Kd [nM]	koff [s⁻¹]	kon [M⁻¹ s⁻¹]
B1	0.4	0.00018	450000
B2	0.8	0.00029	380000
B3	0.8	0.00029	350000

target: T1, His-tagged human HtrA1 protease domain; test: SPR (BIACORE T200), huHtrA1-PD-His captured by anti-His, Fab injected
Experimental: These combination mutants included both a variant light chain and a variant heavy chain. BIACORE™ kinetic analysis was performed (as described below in Section C) using the combination mutants.
(§1) To determine the binding affinity of selected Fab variants for HtrA1, SPR measurement with a BIACORE™ T200 instrument was performed. Briefly, a series S sensor chip CM5 was activated with 1-EDC and NHS reagents according to the supplier's instructions, and anti-His antibody was coupled to achieve 200-300 response units (RU), then following by blocking un-reacted groups with 1 M ethanolamine. For kinetics measurements, approximately 5 nM of huHtrA1-PD-His was first injected at 10 μl/min flow rate to capture approximately 100 RU at 2 different flow cells (FC), except for FC1 (which served as a reference). Next, 5-fold serial dilutions of Fab in HBS-P buffer (0.01M HEPES pH 7.4, 0.15M NaCl, 0.005% surfactant P20) from low (0.8 nM) to high (50 nM) were injected (flow rate: 30 μl/min). The binding responses on HtrA1 were corrected by subtracting of RU from a blank flow cell. The sensorgram was recorded and subject to reference and buffer subtraction before evaluating by BIACORE® T200 Evaluation Software (version 2.0). Association rates (kₒₙ) and dissociation rates (koff) were calculated using a simple one-to-one Langmuir binding model. The equilibrium dissociation constant (KD) was calculated as the ratio of koff/kₒₙ.

Binder	Kd [nM]	koff [s⁻¹]	kon [M⁻¹ s⁻¹]
B4	0.0889	7.95e-05	885000
B5	0.905	0.000115	127000
B6	1.37	0.000188	137000

target: T1, His-tagged human HtrA1 protease domain; test: SPR (BIACORE T100), single-cycle kinetics; biotinylated HtrA1-PD-His on streptavidin, Fab injected
Excerpt: (§2) To determine the binding affinity of anti-HtrA1 Fabs by single-cycle kinetics, (SPR) measurement with a BIACORE™ T100 instrument was used. Briefly, a series S sensor chip CM5 was activated with 1-ethyl-3-(3-dimethylamino-propyl)carbodiimide hydrochloride (EDC) and N-hydroxysuccinimide (NHS) reagents according to the supplier's instructions, and streptavidin (Pierce) was coupled to achieve approximately 2500 response units (RU), followed by blocking un-reacted groups with 1 M ethanolamine.
(§3) For kinetics measurements, biotinylated human or murine HtrA1-PD-His was first injected at 10 μl/min flow rate to capture approximately 150 RU at 3 different flow cells (FC), except for FC1 (which served as a reference), and then 5-fold serial dilutions of anti-HtrA1 Fab in HBS-P buffer (0.01M HEPES pH 7.4, 0.15 M NaCl, 0.005% surfactant P20) from low (0.48 nM) to high (300 nM) were injected (flow rate: 30 μl/min) one after the other in the same cycle with no regeneration between injections. The sensorgram was recorded and subject to reference and buffer subtraction before evaluating by BIACORE™ T100 Evaluation Software (version 2.0). Association rates (kₒₙ) and dissociation rates (koff) were calculated using a simple one-to-one Langmuir binding model. The equilibrium dissociation constant (KD) was calculated as the ratio koff/kₒₙ.

Binder	Kd [nM]	koff [s⁻¹]	kon [M⁻¹ s⁻¹]
B7	0.31	0.000155	506000
B8	23.8	0.00228	96000

target: T2, His-tagged recombinant murine HtrA1 protease domain (murine, UniProt Q9R118 156-367); test: as above
T2 construct: His-tagged protease domain; also called muHtrA1-PD-His; muHtrA1-PD
Excerpt: as §2, §3

Binder	Kd [nM]	koff [s⁻¹]	kon [M⁻¹ s⁻¹]
B7	0.3	0.000163	539000
B8	6.43	0.00117	182000

target: T1, His-tagged human HtrA1 protease domain; test: BIACORE T200 SPR; Fab analyte over huHtrA1-PD-His captured by anti-His antibody
Experimental: as §1

Binder	Kd [nM]	koff [s⁻¹]	kon [M⁻¹ s⁻¹]
B9	0.106	4.55e-05	428000
B10	0.117	4.08e-05	350000
B11	0.137	2.75e-05	200000
B12	0.309	6.6e-05	213000
B13	0.332	7.93e-05	239000
B14	0.095	4.09e-05	431000
B15	0.146	6.41e-05	438000
B16	0.131	4.88e-05	371000
B17	0.163	6.47e-05	397000
B4	0.0898		

target: T1, His-tagged human HtrA1 protease domain; test: SPR (BIACORE T200), huHtrA1-PD-His captured by anti-His, Fab injected; remark: another data set of the same source
Experimental: as §1

Binder	Kd [nM]	koff [s⁻¹]	kon [M⁻¹ s⁻¹]
B5	0.48	0.00013	270000
B6	0.335	0.000193	578000

target: T1, His-tagged human HtrA1 protease domain; test: BIACORE SPR, single-cycle kinetics; Fab analyte over captured human HtrA1

Binder	Kd [nM]	koff [s⁻¹]	kon [M⁻¹ s⁻¹]
B18	0.76	0.00035	460000
B19	0.84	0.00027	320000
B20	0.78	0.00032	410000
B21	0.55	0.00021	380000

target: T1, His-tagged human HtrA1 protease domain; test: as above; remark: another data set of the same source

Binder	Kd [nM]	koff [s⁻¹]	kon [M⁻¹ s⁻¹]
B22	0.31	0.00014	450000
B23	0.33	0.00017	520000

From US20170145113A1 (Genentech, published 2017)
